Source: US20200283478A1 (Genentech, published 2020)
Bridge positions count the residues as written; N and C are the ends. Square brackets hold non-standard residues; d marks the D form. Primed or numbered codes have the meaning given here. hArg = N=C(N)NCCCC[C@H](N)C(=O)O; Hyp′ = 3-hydroxyproline

How the values were obtained:
[1] = molecular target: T1, PCSK9 (proprotein convertase subtilisin/kexin type 9), His-tagged, full-length (human, UniProt Q8NBP7 31-692); assay: TR-FRET competition; competitor EGF(A)-Fc binding to His-PCSK9
T1 construct: Captured by the His tag (SPR Methods 1 and 2), amine-coupled (Method 3), or His-tagged in TR-FRET; also called His-PCSK9

PCSK9Δhelix [2] = molecular target: T2, PCSK9Δhelix (human, UniProt Q8NBP7 31-152; Q8NBP7 168-692); assay: TR-FRET competition; competitor Ab20 binding to His-PCSK9Δhelix
T2 construct: Made by TEV cleavage of human PCSK9 M1-Q692 with an engineered TEV site; The new N-terminus of the catalytic domain is S-A168; also called His-PCSK9Δhelix; PCSK9 lacking the P' helix

[3] = molecular target: T1, PCSK9 (proprotein convertase …); assay: SPR, Method 2 (Biacore T100, NTA capture, single cycle kinetics)
PCSK9Δhelix [4] = molecular target: T2, PCSK9Δhelix; assay: as above
PCSK9Δhelix [5] = molecular target: T3, PCSK9Δhelix (human, Chemically biotinylated in the phage ELISAs; the site is not given.); assay: SPR
T3 construct: construct M1-Q692 with engineered TEV site, cleaved by TEV; also called His-PCSK9Δhelix; open groove PCSK9Δhelix

[6] = molecular target: T4, proprotein convertase subtilisin/kexin type 9 (PCSK9) (human, UniProt Q8NBP7 31-692); assay: cell-based or functional assay
PCSK9Δhelix [7] = molecular target: T3, PCSK9Δhelix; assay: phage competition ELISA against phage-displayed Pep2-8 (Φpep2-8)
PCSK9Δhelix [8] = molecular target: T3, PCSK9Δhelix; assay: phage competition ELISA against phage-displayed K9gvpep4 (ΦK9gvpep4)
[9] = molecular target: T5, PCSK9Δhelix (human PCSK9 lacking the P' helix, His-tagged) (human, UniProt Q8NBP7 31-152; Q8NBP7 168-692); assay: TR-FRET competition; His-PCSK9Δhelix with Ab20 as competitor ligand
T5 construct: Construct M1-Q692 with an engineered TEV site (Y166 and R167 deleted, ENLYFQS inserted between R165 and A168); also called His-PCSK9Δhelix; C-terminal (His)8-tagged PCSK9Δhelix

[10] = molecular target: T6, His-tagged, full-length human PCSK9 (proprotein convertase subtilisin/kexin type 9) (human, UniProt A8T644 31-152; Q8NBP7 153-692); assay: TR-FRET competition; His-PCSK9 with EGF(A)-Fc as competitor ligand
T6 construct: also called His-PCSK9; C-terminal (His)8-tagged PCSK9

[11] = molecular target: T4, proprotein convertase subtilisin/kexin …; assay: TR-FRET competition (Table 11)
[12] = molecular target: T4, proprotein convertase subtilisin/kexin …; assay: SPR
PCSK9Δhelix [13] = molecular target: T3, PCSK9Δhelix; assay: Ab20 TR-FRET competition and SPR

T3 sequence (prodomain, as listed by the source mutant limits assumed, chain 1 of 2): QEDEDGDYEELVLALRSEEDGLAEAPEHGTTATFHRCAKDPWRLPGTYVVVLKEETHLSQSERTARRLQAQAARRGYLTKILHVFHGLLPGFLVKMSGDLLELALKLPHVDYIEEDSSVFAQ
T3 sequence (chain, as listed by the source mutant limits assumed, chain 2 of 2): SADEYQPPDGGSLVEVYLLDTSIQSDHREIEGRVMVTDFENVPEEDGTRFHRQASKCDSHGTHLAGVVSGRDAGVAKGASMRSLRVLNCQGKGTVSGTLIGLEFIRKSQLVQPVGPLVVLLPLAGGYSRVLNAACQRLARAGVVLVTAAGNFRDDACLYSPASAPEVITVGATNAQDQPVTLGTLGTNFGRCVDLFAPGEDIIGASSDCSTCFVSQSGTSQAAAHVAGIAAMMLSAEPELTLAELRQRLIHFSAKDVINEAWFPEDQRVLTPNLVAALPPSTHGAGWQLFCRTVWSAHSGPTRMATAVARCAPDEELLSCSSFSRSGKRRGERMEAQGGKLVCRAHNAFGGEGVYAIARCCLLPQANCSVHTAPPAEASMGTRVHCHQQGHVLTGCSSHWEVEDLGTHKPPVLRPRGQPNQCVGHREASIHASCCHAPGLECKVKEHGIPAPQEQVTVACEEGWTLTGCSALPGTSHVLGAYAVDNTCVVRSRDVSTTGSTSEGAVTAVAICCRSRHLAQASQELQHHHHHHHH
T4 sequence (Q8NBP7 other isoform, or with tags, fused parts or gaps limits assumed): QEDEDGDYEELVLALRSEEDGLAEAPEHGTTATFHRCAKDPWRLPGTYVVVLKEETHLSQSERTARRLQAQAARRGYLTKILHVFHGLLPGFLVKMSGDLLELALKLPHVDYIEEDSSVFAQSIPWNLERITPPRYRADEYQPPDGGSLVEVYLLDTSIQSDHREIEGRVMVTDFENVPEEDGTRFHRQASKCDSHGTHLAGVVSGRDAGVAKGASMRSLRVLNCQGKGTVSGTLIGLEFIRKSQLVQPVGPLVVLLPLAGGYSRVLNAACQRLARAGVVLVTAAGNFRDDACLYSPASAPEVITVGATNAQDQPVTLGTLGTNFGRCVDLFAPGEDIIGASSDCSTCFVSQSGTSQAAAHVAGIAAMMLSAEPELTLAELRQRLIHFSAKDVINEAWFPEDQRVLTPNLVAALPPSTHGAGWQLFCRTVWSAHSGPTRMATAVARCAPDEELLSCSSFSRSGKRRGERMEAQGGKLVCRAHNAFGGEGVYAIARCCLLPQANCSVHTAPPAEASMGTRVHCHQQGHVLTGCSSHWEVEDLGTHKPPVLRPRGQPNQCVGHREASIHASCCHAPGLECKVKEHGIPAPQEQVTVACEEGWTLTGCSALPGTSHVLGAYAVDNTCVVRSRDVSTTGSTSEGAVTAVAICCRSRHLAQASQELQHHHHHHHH
T2 sequence (Q8NBP7 31-152, stated change not applied, chain 1 of 2): as the sequence (prodomain, as listed by the source mutant limits assumed, chain 1 of 2) above
T2 sequence (Q8NBP7 other isoform, or with tags, fused parts or gaps mutant, chain 2 of 2): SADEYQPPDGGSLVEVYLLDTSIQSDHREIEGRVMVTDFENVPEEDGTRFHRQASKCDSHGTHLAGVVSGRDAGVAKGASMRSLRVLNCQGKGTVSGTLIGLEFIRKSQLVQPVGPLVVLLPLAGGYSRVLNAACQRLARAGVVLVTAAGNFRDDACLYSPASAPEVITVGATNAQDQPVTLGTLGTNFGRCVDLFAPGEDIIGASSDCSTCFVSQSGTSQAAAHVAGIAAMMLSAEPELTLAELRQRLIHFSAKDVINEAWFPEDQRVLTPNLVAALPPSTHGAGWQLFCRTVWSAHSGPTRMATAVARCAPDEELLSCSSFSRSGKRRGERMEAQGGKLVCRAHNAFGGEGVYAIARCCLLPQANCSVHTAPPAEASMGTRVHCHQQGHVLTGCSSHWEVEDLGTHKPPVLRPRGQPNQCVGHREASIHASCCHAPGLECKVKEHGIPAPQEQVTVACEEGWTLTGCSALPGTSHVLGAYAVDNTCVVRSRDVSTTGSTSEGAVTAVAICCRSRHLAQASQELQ
T1 sequence (Q8NBP7 31-692 limits assumed): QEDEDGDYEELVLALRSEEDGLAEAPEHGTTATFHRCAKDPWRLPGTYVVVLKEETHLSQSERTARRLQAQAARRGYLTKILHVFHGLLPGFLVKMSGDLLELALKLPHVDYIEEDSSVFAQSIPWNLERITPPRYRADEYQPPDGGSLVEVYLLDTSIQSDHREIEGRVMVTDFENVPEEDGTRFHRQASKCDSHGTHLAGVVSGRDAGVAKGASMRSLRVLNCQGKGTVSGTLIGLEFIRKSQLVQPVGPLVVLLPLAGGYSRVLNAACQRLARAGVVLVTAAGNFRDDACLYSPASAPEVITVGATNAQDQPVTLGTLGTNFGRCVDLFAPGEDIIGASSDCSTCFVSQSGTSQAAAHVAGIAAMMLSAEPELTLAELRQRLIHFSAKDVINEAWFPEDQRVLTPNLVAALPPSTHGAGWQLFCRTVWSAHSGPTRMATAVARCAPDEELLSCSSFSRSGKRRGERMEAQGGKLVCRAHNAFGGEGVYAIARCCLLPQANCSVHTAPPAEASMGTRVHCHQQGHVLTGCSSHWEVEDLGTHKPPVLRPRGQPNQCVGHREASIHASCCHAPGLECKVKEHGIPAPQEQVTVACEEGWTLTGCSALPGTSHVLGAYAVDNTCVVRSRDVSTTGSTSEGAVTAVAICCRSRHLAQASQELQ
T6 sequence (A8T644 31-152, chain 1 of 2): as the sequence (prodomain, as listed by the source mutant limits assumed, chain 1 of 2) above
T6 sequence (A8T644 other isoform, or with tags, fused parts or gaps, chain 2 of 2): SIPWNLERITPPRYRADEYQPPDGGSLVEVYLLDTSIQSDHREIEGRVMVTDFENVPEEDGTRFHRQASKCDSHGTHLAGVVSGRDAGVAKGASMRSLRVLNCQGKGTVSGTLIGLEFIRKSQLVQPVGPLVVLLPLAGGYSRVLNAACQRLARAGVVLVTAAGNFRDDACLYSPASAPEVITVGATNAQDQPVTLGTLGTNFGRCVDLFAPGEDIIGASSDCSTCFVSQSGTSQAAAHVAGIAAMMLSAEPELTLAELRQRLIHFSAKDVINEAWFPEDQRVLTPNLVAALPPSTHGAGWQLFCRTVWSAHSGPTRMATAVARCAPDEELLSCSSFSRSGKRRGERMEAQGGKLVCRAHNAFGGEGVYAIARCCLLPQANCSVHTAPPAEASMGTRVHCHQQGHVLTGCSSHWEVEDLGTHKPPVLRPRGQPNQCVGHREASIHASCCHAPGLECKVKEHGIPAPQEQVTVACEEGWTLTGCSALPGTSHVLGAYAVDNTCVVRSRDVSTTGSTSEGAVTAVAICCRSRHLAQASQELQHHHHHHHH
T5 sequence (Q8NBP7 31-152, stated change not applied, chain 1 of 2): as the sequence (prodomain, as listed by the source mutant limits assumed, chain 1 of 2) above
T5 sequence (Q8NBP7 other isoform, or with tags, fused parts or gaps mutant, chain 2 of 2): as the sequence (chain, as listed by the source mutant limits assumed, chain 2 of 2) above

B1: Compound 2 (peptide)
peptide: Ac-TVFTSWEEYLDWVGSGCWNLKRIGSQGC-NH2
modifications: disulfide 17-28
SMILES: CC[C@H](C)[C@@H]1NC(=O)[C@H](CCCNC(=N)N)NC(=O)[C@H](CCCCN)NC(=O)[C@H](CC(C)C)NC(=O)[C@H](CC(N)=O)NC(=O)[C@H](Cc2c[nH]c3ccccc23)NC(=O)[C@@H](NC(=O)CNC(=O)[C@H](CO)NC(=O)CNC(=O)[C@@H](NC(=O)[C@H](Cc2c[nH]c3ccccc23)NC(=O)[C@H](CC(=O)O)NC(=O)[C@H](CC(C)C)NC(=O)[C@H](Cc2ccc(O)cc2)NC(=O)[C@H](CCC(=O)O)NC(=O)[C@H](CCC(=O)O)NC(=O)[C@H](Cc2c[nH]c3ccccc23)NC(=O)[C@H](CO)NC(=O)[C@@H](NC(=O)[C@H](Cc2ccccc2)NC(=O)[C@@H](NC(=O)[C@@H](NC(C)=O)[C@@H](C)O)C(C)C)[C@@H](C)O)C(C)C)CSSC[C@@H](C(N)=O)NC(=O)CNC(=O)[C@H](CCC(N)=O)NC(=O)[C@H](CO)NC(=O)CNC1=O
notes: Disulfide C17-C28
IC50 [1]: 110 nM | IC50 (PCSK9Δhelix [2]): 4 nM | Kd [3]: 30.3 nM | Kd (PCSK9Δhelix [4]): 1.87 nM

Ac-WNLV[hArg]IGLLR-NH2 [Compound 192]
fold improvement of binding affinity by homo-arginine substitution (against Compound 53) (PCSK9Δhelix [5]): 14 fold

Ac-TVFTSWEEYLDWVGSGCRLPWNLQRIGLPC-NH2 (disulfide 17-30 (inferred), also called Pep2-8p4; Pep2-8_K9gvpep4) [Compound 19]
concentration restoring LDLR levels on HepG2 cells to 50% (EC50) [6]: ~500 nM | IC50 (PCSK9Δhelix [7]): 2.92 nM | IC50 (PCSK9Δhelix [8]): 5.65 nM

Ac-SGCFI[Hyp′]WNLQRIGLLC-NH2 (disulfide 3-16 (inferred), Has two Cys (positions 3 and 16)) [Compound 242: Ac-SG-CFI(Hyp)WNLQRIGLLC-NH2]
IC50 [9]: 31000 nM | IC50 [10]: ≥ 50000 nM

B2: Compound 227 (peptide)
peptide: Ac-ESFPGWNLV[hArg]IGLLR-NH2
SMILES: CC[C@H](C)[C@H](NC(=O)[C@H](CCCCNC(=N)N)NC(=O)[C@@H](NC(=O)[C@H](CC(C)C)NC(=O)[C@H](CC(N)=O)NC(=O)[C@H](Cc1c[nH]c2ccccc12)NC(=O)CNC(=O)[C@@H]1CCCN1C(=O)[C@H](Cc1ccccc1)NC(=O)[C@H](CO)NC(=O)[C@H](CCC(=O)O)NC(C)=O)C(C)C)C(=O)NCC(=O)N[C@@H](CC(C)C)C(=O)N[C@@H](CC(C)C)C(=O)N[C@@H](CCCNC(=N)N)C(N)=O
fold lower inhibitory activity against Compound 229 [11]: ~3 fold

B3: Compound 228 (peptide)
peptide: Ac-SFAFPGWNLV[hArg]IGLLR-NH2
SMILES: CC[C@H](C)[C@H](NC(=O)[C@H](CCCCNC(=N)N)NC(=O)[C@@H](NC(=O)[C@H](CC(C)C)NC(=O)[C@H](CC(N)=O)NC(=O)[C@H](Cc1c[nH]c2ccccc12)NC(=O)CNC(=O)[C@@H]1CCCN1C(=O)[C@H](Cc1ccccc1)NC(=O)[C@H](C)NC(=O)[C@H](Cc1ccccc1)NC(=O)[C@H](CO)NC(C)=O)C(C)C)C(=O)NCC(=O)N[C@@H](CC(C)C)C(=O)N[C@@H](CC(C)C)C(=O)N[C@@H](CCCNC(=N)N)C(N)=O
Kd [12]: 2800 nM

Ac-WNLVRIGLLR-NH2 [Compound 53]
fold reduction of binding affinity on elimination of Pro4 (PCSK9Δhelix [13]): 10 fold
